We go through 98 substances from the supplement of paper PMC12042874.

This series in a line: amyloid nucleation score (Sup35N fusion, yeast selection) (log enrichment); library NNK3; higher = more nucleation; inactive = no reads after selection. In a few lines:
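The nucleation score is the log enrichment of output over input reads, calculated with DiMSum and centred on the mode score of non-aggregating sequences. Sequences with under 100 input reads were excluded. Reads came from Illumina sequencing of plasmid inserts from psi-negative yeast expressing Sup35N fused to peptides of 20 random codons, induced 24 hours with 100 μM copper sulfate and grown 7 days at 30°C without adenine and uracil.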

± gives the uncertainty stated by the source.

With CLGAGLRSGSAARLYEFGQV, the amyloid nucleation score result is “inactive”.

In the case of KLHPTYLCNQNPRELWLITY, the amyloid nucleation score result was “inactive”.

Consider DFFNWWSSVWFYLLMGRKVE, for which the amyloid nucleation score result is “inactive”.

FLPRFGNHLTIRQKVRRTSG: the amyloid nucleation score entry was “inactive”.

With KVFFVRTIIKVRVAGCSVRV, the amyloid nucleation score result was “inactive”.

With TKGTKDRPPYTVVRLQYGNS, the amyloid nucleation score result is “inactive”.

Substance KFRWVFYFGSAMEVREGSEF came in with an amyloid nucleation score of -0.141 ± 0.45.

As to DGNLWMKSVCCWTKVFIELL, the amyloid nucleation score amounted to 1.37 ± 0.12.

In the case of RDFNMDTVRAVWISQILNSI, the amyloid nucleation score result is “inactive”.

Take SISSYMD: the amyloid nucleation score result was “inactive”.

Regarding MWHLTF, the amyloid nucleation score entry is “inactive”.

For VMDGFHKHIFFVVCTSRHNF, the amyloid nucleation score is 0.271 ± 0.77.

On to YGCCVSGMYVALGLQ, for which the amyloid nucleation score worked out at 2.8 ± 0.068.

As to RRDSDIDRALSLGYASRTTK, the amyloid nucleation score result was “inactive”.

For the substance EVVPCCF, the amyloid nucleation score result was “inactive”.

With FLLNLMIHLFYLVLKSRNQN, the amyloid nucleation score result was “inactive”.

Turning to ITPTFYVARTKPMLTGGCPK, the amyloid nucleation score entry was “inactive”.

For PFSYDLRNFNSWQIGNGGLM, the amyloid nucleation score result was “inactive”.

As to GDIRLGVAFRIFLSNCWGYF, the amyloid nucleation score entry was “inactive”.

In the case of FKTCLGPQSTLVKGEVESHT, the amyloid nucleation score entry is “inactive”.

As to EWSLKIVTMNMASWM, the amyloid nucleation score result is “inactive”.

For AVPDVKSAKVDLVNFILAVC, the amyloid nucleation score entry is “inactive”.

RFLLLRSCMSIDWRVGLEIF: the amyloid nucleation score result is “inactive”.

With MSGNA, the amyloid nucleation score result is “inactive”.

With VWKMRDTKHMGLLWLLWFIE, the amyloid nucleation score result is “inactive”.

Consider RSWSETC, for which the amyloid nucleation score result is “inactive”.

As to LSRSWCWRR, the amyloid nucleation score entry was “inactive”.

Turning to FLMHSKVTSCGVWSLYFADV, the amyloid nucleation score turned out to be 1.44 ± 0.15.

LGTPYMDMRG registered an amyloid nucleation score of 1.29 ± 0.15.

With NFLRAKDLEYRTV, the amyloid nucleation score is -0.761 ± 1.1.

Turning to MIYYMLWTYWALPKPWNEYI, the amyloid nucleation score was 0.971 ± 0.16.

Take CGVEHYWRGLVG: the amyloid nucleation score entry was “inactive”.

Regarding SYSIWSLLEIDF, the amyloid nucleation score entry is “inactive”.

Consider WRSASGVD, for which the amyloid nucleation score result is “inactive”.

Take LFDFYRNSVTD: the amyloid nucleation score result was “inactive”.

As to TDTRNINV, the amyloid nucleation score entry is “inactive”.

With FTWLSMYYCLRANERK, the amyloid nucleation score came to 1.33 ± 0.15.

Turning to RFMQWGIFS, the amyloid nucleation score entry was “inactive”.

The substance KWGSATTCFI gave an amyloid nucleation score of 0.067 ± 0.31.

YYLNKVVSIVNRLFVAFAPC: the amyloid nucleation score result was “inactive”.

As to WAFHFGCCNDGMVR, the amyloid nucleation score result was “inactive”.

On to HFHSVIELVYG, for which the amyloid nucleation score result was “inactive”.

With RYCNASY, the amyloid nucleation score result was “inactive”.

For VRLCRGS, the amyloid nucleation score entry is “inactive”.

Consider TVVLSWPMYAECKFSCICMT, for which the amyloid nucleation score amounted to 1.38 ± 0.1.

NMFVILRFVMHKIKMFNRF came in with an amyloid nucleation score of 1.51 ± 0.079.

CSLQLASDQGFSQRDDCTVH: the amyloid nucleation score entry is “inactive”.

In the case of DARVFKAVFRVLCDLVPASC, the amyloid nucleation score result was “inactive”.

YLIGYDT: the amyloid nucleation score came to 0.366 ± 0.65.

As to CIGTI, the amyloid nucleation score entry is “inactive”.

VMYNYARFRWFLCTDQ registered an amyloid nucleation score of 1 ± 0.2.

Turning to ENLLISKRCINGMA, the amyloid nucleation score result was “inactive”.

For TLTYTKYYHFNCNRTLYESV, the amyloid nucleation score came to 0.665 ± 0.16.

With WANMQETFWRMWTRPVLTCG, the amyloid nucleation score result is “inactive”.

On to WQVTCDFTFNLRFLFGFGDC, for which the amyloid nucleation score was found to be 0.617 ± 0.2.

In the case of INTLYMTDRDRSLPESVQNL, the amyloid nucleation score entry was “inactive”.

On to RLSWSQPVLNVSTCEGVN, for which the amyloid nucleation score result is “inactive”.

As for FWDTKFEFFQLHRVWIPLLV, the amyloid nucleation score entry was “inactive”.

Regarding GSVTGAFERYVKKEA, the amyloid nucleation score entry is “inactive”.

In the case of PVGHSSMSLYRGR, the amyloid nucleation score entry was “inactive”.

The substance KFKSRGRSTMLLVFNIVWRV displayed an amyloid nucleation score of -0.476 ± 0.42.

CHFPG: the amyloid nucleation score entry was “inactive”.

HTGLVILSVISPVTCPYWRK displayed an amyloid nucleation score of 0.329 ± 0.3.

As for KVYRKKPIGYVECLLSPLKA, the amyloid nucleation score result is “inactive”.

Turning to SRGCRTTYRQEWECIQCLKW, the amyloid nucleation score result was “inactive”.

Consider SIESPSNIMS, for which the amyloid nucleation score result was “inactive”.

Substance IMILFI came in with an amyloid nucleation score of 0.13 ± 0.49.

The substance TKRCKYCTKGNVQTHTWVAF gave an amyloid nucleation score of 0.466 ± 0.23.

In the case of LLSFENNSQLVYVCIDNTLE, the amyloid nucleation score entry was “inactive”.

Turning to MTVWNSWNINIVWVMFLSA, the amyloid nucleation score result was “inactive”.

Consider LWLVIN, for which the amyloid nucleation score entry was “inactive”.

In the case of TNSGGFRMVIYFFR, the amyloid nucleation score entry is “inactive”.

For CRNKFLVKGAFTRGSREN, the amyloid nucleation score entry is “inactive”.

For VFDYADDYYTVNGTVLSPAE, the amyloid nucleation score was -0.283 ± 0.32.

Take VSMVPRNIWCEMFCQTHADI: the amyloid nucleation score was determined as 1.26 ± 0.1.

As to VVWLSNSEWLRYLKDG, the amyloid nucleation score entry is “inactive”.

Consider SAASYLTHDVN, for which the amyloid nucleation score result was “inactive”.

As for DEPAFQDFVLYTSSSSCWRY, the amyloid nucleation score entry is “inactive”.

With IRSSREFYMSVYRTEAWVLE, the amyloid nucleation score entry was “inactive”.

Substance GKTSGCWSFFYILIS returned an amyloid nucleation score of -0.388 ± 0.75.

On to DYYTVCQAWIYIGFAILKW, for which the amyloid nucleation score entry is “inactive”.

For the substance LLRKRHVLNTK, the amyloid nucleation score entry was “inactive”.

Regarding RIKLRLFTTHEYCSRDRCSD, the amyloid nucleation score result is “inactive”.

Substance AISYFSSWGAM came in with an amyloid nucleation score of 0.485 ± 0.24.

As for IFVCKRLMRGLVR, the amyloid nucleation score entry was “inactive”.

For the substance IYRGHVRQKELFCHRREIQW, the amyloid nucleation score entry was “inactive”.

On to MINWYGRTNPLCDPGLLRGI, for which the amyloid nucleation score entry is “inactive”.

For MELSGSIMRIEMLYFFMRHK, the amyloid nucleation score result was “inactive”.

With YYAFPLYKKSFYRIPTNVWA, the amyloid nucleation score entry is “inactive”.

For ITRDDTCSVYRLVK, the amyloid nucleation score result is “inactive”.

Turning to LSRCMWDSDMYRGERYGRRR, the amyloid nucleation score result was “inactive”.

On to VQSSIESLPDPIFRYLQSIS, for which the amyloid nucleation score entry was “inactive”.

On to DQGDRSFCSNLRLGYGVRAW, for which the amyloid nucleation score entry is “inactive”.

Substance FLAFSMEYCYVPHFWKVSLS came in with an amyloid nucleation score of 0.311 ± 0.25.

Consider CYRLQAFNARGTERTDAVYL, for which the amyloid nucleation score result was “inactive”.

In the case of YCKSPVSANMHMNNGNTGSC, the amyloid nucleation score entry is “inactive”.

The substance VGYTNLVFGDLLLFCMFNWD registered an amyloid nucleation score of 0.109 ± 0.45.

Turning to YGILLFGVSWWWAVSFFENF, the amyloid nucleation score result is “inactive”.
